{
  "source": "paper PMC6344896",
  "about": "“HuR biological function involves RRM3-mediated dimerization and RNA binding by all three RRMs”",
  "key": {"HuR W261E": {"biological_target": "HuR W261E (human, UniProt Q15717 1-326, W261E)", "sequence (Q15717 whole entry W261E)": "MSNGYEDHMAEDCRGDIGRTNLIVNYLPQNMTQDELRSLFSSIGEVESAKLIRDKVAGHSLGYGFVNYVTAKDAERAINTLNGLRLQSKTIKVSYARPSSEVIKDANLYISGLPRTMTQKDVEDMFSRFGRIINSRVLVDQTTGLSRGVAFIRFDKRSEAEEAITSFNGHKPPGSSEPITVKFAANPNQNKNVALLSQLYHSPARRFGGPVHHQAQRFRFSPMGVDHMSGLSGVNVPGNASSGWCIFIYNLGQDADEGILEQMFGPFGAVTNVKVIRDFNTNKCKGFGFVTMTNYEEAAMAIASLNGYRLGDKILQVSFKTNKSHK", "assay": "ITC; n=0.9; ITC: 50 mM sodium phosphate pH 7.0, 200 mM NaCl, 2 mM beta-mercaptoethanol, 298 K; NMR: 20 mM sodium phosphate pH 7.0, 200 mM NaCl, 5 mM DTT, 1 mM EDTA, 298 K", "details": "protein: recombinant; tags: untagged (tag cleaved)"}, "HuR GGS": {"biological_target": "HuR GGS (human, UniProt Q15717 1-185+=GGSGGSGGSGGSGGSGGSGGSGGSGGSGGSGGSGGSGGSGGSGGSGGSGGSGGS+240-326, internal_change)", "sequence (Q15717 other isoform, or with tags, fused parts or gaps)": "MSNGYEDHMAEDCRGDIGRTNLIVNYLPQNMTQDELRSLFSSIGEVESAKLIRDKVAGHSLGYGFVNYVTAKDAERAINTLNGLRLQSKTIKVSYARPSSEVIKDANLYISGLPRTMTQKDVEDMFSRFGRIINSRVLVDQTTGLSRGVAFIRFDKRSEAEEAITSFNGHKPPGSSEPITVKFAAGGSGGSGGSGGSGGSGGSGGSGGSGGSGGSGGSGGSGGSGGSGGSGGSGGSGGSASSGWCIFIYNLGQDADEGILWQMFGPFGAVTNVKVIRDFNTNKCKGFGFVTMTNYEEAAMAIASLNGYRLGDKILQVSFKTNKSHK", "assay": "ITC; n=0.9; ITC: 50 mM sodium phosphate pH 7.0, 200 mM NaCl, 2 mM beta-mercaptoethanol, 298 K; NMR: 20 mM sodium phosphate pH 7.0, 200 mM NaCl, 5 mM DTT, 1 mM EDTA, 298 K", "details": "protein: recombinant; tags: pETM11 His6, cleaved"}, "HuR F287A/F289A": {"biological_target": "HuR F287A/F289A (human, UniProt Q15717 1-326, F287A;F289A)", "sequence (Q15717 whole entry F287A/F289A)": "as the sequence (Q15717 whole entry W261E) above, with E261W, F287A, F289A counted along it", "assay": "ITC; n=0.7; ITC: 50 mM sodium phosphate pH 7.0, 200 mM NaCl, 2 mM beta-mercaptoethanol, 298 K; NMR: 20 mM sodium phosphate pH 7.0, 200 mM NaCl, 5 mM DTT, 1 mM EDTA, 298 K", "details": "protein: recombinant; tags: untagged (tag cleaved)"}, "HuR WT": {"biological_target": "HuR WT (human, UniProt Q15717 1-326)", "sequence (Q15717 whole entry)": "as the sequence (Q15717 whole entry W261E) above, with E261W counted along it", "assay": "ITC; n=0.7; ITC: 50 mM sodium phosphate pH 7.0, 200 mM NaCl, 2 mM beta-mercaptoethanol, 298 K; NMR: 20 mM sodium phosphate pH 7.0, 200 mM NaCl, 5 mM DTT, 1 mM EDTA, 298 K", "details": "protein: recombinant; tags: untagged (His6-MBP cleaved)"}, "HuR F247A/Y249A": {"biological_target": "HuR F247A/Y249A (human, UniProt Q15717 1-326, F247A;Y249A)", "sequence (Q15717 whole entry F247A/Y249A)": "as the sequence (Q15717 whole entry W261E) above, with F247A, Y249A, E261W counted along it", "assay": "ITC; n=0.8; ITC: 50 mM sodium phosphate pH 7.0, 200 mM NaCl, 2 mM beta-mercaptoethanol, 298 K; NMR: 20 mM sodium phosphate pH 7.0, 200 mM NaCl, 5 mM DTT, 1 mM EDTA, 298 K", "details": "protein: recombinant; tags: untagged (tag cleaved)"}, "HuR F279A": {"biological_target": "HuR F279A (human, UniProt Q15717 1-326, F279A)", "sequence (Q15717 whole entry F279A)": "as the sequence (Q15717 whole entry W261E) above, with E261W, F279A counted along it", "assay": "ITC; n=1.0; ITC: 50 mM sodium phosphate pH 7.0, 200 mM NaCl, 2 mM beta-mercaptoethanol, 298 K; NMR: 20 mM sodium phosphate pH 7.0, 200 mM NaCl, 5 mM DTT, 1 mM EDTA, 298 K", "details": "protein: recombinant; tags: untagged (tag cleaved)"}, "HuR RRM3 [1]": {"biological_target": "T1, HuR RRM3 (human, UniProt Q15717 243-326)", "T1 sequence (Q15717 243-326)": "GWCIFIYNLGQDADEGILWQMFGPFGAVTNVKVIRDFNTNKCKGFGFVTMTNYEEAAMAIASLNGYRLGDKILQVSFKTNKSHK", "assay": "ITC; n=1.1; ITC: 50 mM sodium phosphate pH 7.0, 200 mM NaCl, 2 mM beta-mercaptoethanol, 298 K; NMR: 20 mM sodium phosphate pH 7.0, 200 mM NaCl, 5 mM DTT, 1 mM EDTA, 298 K", "details": "protein: recombinant; tags: untagged (His6-GST cleaved with TEV)"}, "HuR RRM3 [2]": {"biological_target": "T1, HuR RRM3", "assay": "NMR; 1:0.25 and 1:1.25; ITC: 50 mM sodium phosphate pH 7.0, 200 mM NaCl, 2 mM beta-mercaptoethanol, 298 K; NMR: 20 mM sodium phosphate pH 7.0, 200 mM NaCl, 5 mM DTT, 1 mM EDTA, 298 K", "details": "protein: recombinant; tags: untagged (His6-GST cleaved with TEV)"}, "HuR RRM3 [3]": {"biological_target": "T1, HuR RRM3", "assay": "ITC; n=0.8; ITC: 50 mM sodium phosphate pH 7.0, 200 mM NaCl, 2 mM beta-mercaptoethanol, 298 K; NMR: 20 mM sodium phosphate pH 7.0, 200 mM NaCl, 5 mM DTT, 1 mM EDTA, 298 K", "details": "protein: recombinant; tags: untagged (His6-GST cleaved with TEV)"}, "HuR RRM3 [4]": {"biological_target": "T1, HuR RRM3", "assay": "NMR; changes comparable with U6; ITC: 50 mM sodium phosphate pH 7.0, 200 mM NaCl, 2 mM beta-mercaptoethanol, 298 K; NMR: 20 mM sodium phosphate pH 7.0, 200 mM NaCl, 5 mM DTT, 1 mM EDTA, 298 K", "details": "protein: recombinant; tags: untagged (His6-GST cleaved with TEV)"}, "HuR RRM3 [5]": {"biological_target": "T1, HuR RRM3", "assay": "ITC; 400 uM RNA into 20 uM RRM3; ITC: 50 mM sodium phosphate pH 7.0, 200 mM NaCl, 2 mM beta-mercaptoethanol, 298 K; NMR: 20 mM sodium phosphate pH 7.0, 200 mM NaCl, 5 mM DTT, 1 mM EDTA, 298 K", "details": "protein: recombinant; tags: untagged (His6-GST cleaved with TEV)"}, "HuR RRM3 [6]": {"biological_target": "T1, HuR RRM3", "assay": "ITC; 400 uM RNA into 20 uM RRM3; n=0.6; ITC: 50 mM sodium phosphate pH 7.0, 200 mM NaCl, 2 mM beta-mercaptoethanol, 298 K; NMR: 20 mM sodium phosphate pH 7.0, 200 mM NaCl, 5 mM DTT, 1 mM EDTA, 298 K", "details": "protein: recombinant; tags: untagged (His6-GST cleaved with TEV)"}, "HuR RRM3 F247A/Y249A": {"biological_target": "HuR RRM3 F247A/Y249A (human, UniProt Q15717 243-326, F247A;Y249A)", "sequence (Q15717 243-326 F247A/Y249A)": "as the sequence (Q15717 243-326) above, with F5A, Y7A counted along it", "assay": "ITC; ITC: 50 mM sodium phosphate pH 7.0, 200 mM NaCl, 2 mM beta-mercaptoethanol, 298 K; NMR: 20 mM sodium phosphate pH 7.0, 200 mM NaCl, 5 mM DTT, 1 mM EDTA, 298 K", "details": "protein: recombinant; tags: untagged (His6-GST cleaved)"}, "HuR RRM3 F279A": {"biological_target": "HuR RRM3 F279A (human, UniProt Q15717 243-326, F279A)", "sequence (Q15717 243-326 F279A)": "as the sequence (Q15717 243-326) above, with F37A counted along it", "assay": "ITC; n=0.6; ITC: 50 mM sodium phosphate pH 7.0, 200 mM NaCl, 2 mM beta-mercaptoethanol, 298 K; NMR: 20 mM sodium phosphate pH 7.0, 200 mM NaCl, 5 mM DTT, 1 mM EDTA, 298 K", "details": "protein: recombinant; tags: untagged (His6-GST cleaved)"}, "HuR RRM3 [7]": {"biological_target": "T1, HuR RRM3", "assay": "ITC; ITC: 50 mM sodium phosphate pH 7.0, 200 mM NaCl, 2 mM beta-mercaptoethanol, 298 K; NMR: 20 mM sodium phosphate pH 7.0, 200 mM NaCl, 5 mM DTT, 1 mM EDTA, 298 K", "details": "protein: recombinant; tags: untagged (His6-GST cleaved with TEV)"}},
  "data": [
    {"binder": "AUUUUUAUUUUAUUUUU (ssRNA)", "note": "[AU17]", "values": [
      {"measurement": "Kd", "setting": "HuR W261E", "value": "0.041 ± 0.0048", "unit": "µM"},
      {"measurement": "Kd", "setting": "HuR GGS", "value": "0.0336 ± 0.0027", "unit": "µM"},
      {"measurement": "Kd", "setting": "HuR F287A/F289A", "value": "0.194 ± 0.0215", "unit": "µM"},
      {"measurement": "Kd", "setting": "HuR WT", "value": "0.04 ± 0.0082", "unit": "µM"},
      {"measurement": "Kd", "setting": "HuR F247A/Y249A", "value": "0.351 ± 0.0199", "unit": "µM"},
      {"measurement": "Kd", "setting": "HuR F279A", "value": "0.0288 ± 0.0044", "unit": "µM"}
    ]},
    {"binder": "UUUGUU (ssRNA)", "note": "[GU6]", "values": [
      {"measurement": "Kd", "setting": "HuR RRM3 [1]", "value": "100 ± 18.2", "unit": "µM"}
    ]},
    {"binder": "GAGCAC (ssRNA)", "note": "[GC control]", "values": [
      {"measurement": "binding result", "setting": "HuR RRM3 [2]", "value": "no binding"}
    ]},
    {"binder": "UUUAUU (ssRNA)", "note": "[AU6]", "values": [
      {"measurement": "Kd", "setting": "HuR RRM3 [3]", "value": "47 ± 3.6", "unit": "µM"}
    ]},
    {"binder": "UUUUUUUUU (ssRNA)", "note": "[U9]", "values": [
      {"measurement": "binding result", "setting": "HuR RRM3 [4]", "value": "binds"}
    ]},
    {"binder": "UUUUU (ssRNA)", "note": "[U5]", "values": [
      {"measurement": "Kd", "setting": "HuR RRM3 [5]", "value": 34, "unit": "µM"}
    ]},
    {"binder": "UUUUUU (ssRNA)", "note": "[U6]", "values": [
      {"measurement": "Kd", "setting": "HuR RRM3 [6]", "value": "15.8 ± 1.5", "unit": "µM"},
      {"measurement": "binding result", "setting": "HuR RRM3 F247A/Y249A", "value": "no binding"},
      {"measurement": "Kd", "setting": "HuR RRM3 F279A", "value": "44.6 ± 3.5", "unit": "µM"},
      {"measurement": "Kd", "setting": "HuR RRM3 [3]", "value": "19.3 ± 0.3", "unit": "µM"}
    ]},
    {"binder": "UAUUUA (ssRNA)", "note": "[AU6tnf]", "values": [
      {"measurement": "Kd", "setting": "HuR RRM3 [7]", "value": "156 ± 32.8", "unit": "µM"}
    ]}
  ]
}
